According to patent US20090104149A1:

molecular target: human recombinant cyclophilin (human) (UniProt P62937); assay: competitive ELISA, human recombinant cyclophilin on coated BSA-cyclosporin A; reference cyclosporin A
Sequence (P62937 whole entry): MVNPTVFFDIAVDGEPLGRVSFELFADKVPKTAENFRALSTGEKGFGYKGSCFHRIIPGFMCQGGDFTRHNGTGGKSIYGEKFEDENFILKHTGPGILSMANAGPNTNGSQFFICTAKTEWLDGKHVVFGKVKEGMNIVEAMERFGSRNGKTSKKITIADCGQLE

Row | Substance | Binding Ratio (BR), log10 of IC50 of test compound over IC50 of cyclosporin A
1 | [Melle]^4-Ciclosporin (peptide) | -0.2 log10 ratio
2 | [Ethyl-lle]^4-Ciclosporin (peptide) | 0.1 log10 ratio
3 | [8′-hydroxy-MeBmt]^5-Ciclosporin (peptide) | 0.35 log10 ratio
4 | [γ-hydroxy-MeLeu]^4-Ciclosporin (peptide) | 0.4 log10 ratio
5 | [MeAla]^6-Ciclosporin (peptide) | -0.4 log10 ratio
6 | [MeVal]^4-Ciclosporin (peptide) | 0.1 log10 ratio
7 | [dihydro-MeBmt]^1-[γ-hydroxy-MeLeu]^4-Ciclosporin (peptide) | 0.1 log10 ratio
8 | [Ethyl-Val]^4-Ciclosporin (peptide) | 0 log10 ratio
9 | [γ-hydroxy-MeLeu]^9-Ciclosporin (peptide) | 0.15 log10 ratio
10 | [MeVal]^5-Ciclosporin (peptide) | 0.4 log10 ratio
